This note sets out measurements from article PMC6267192.

The target in the test is TLR2 (human (endogenous in BEAS-2B)) (UniProt O60603).
UniProt O60603, sequence (O60603 21-784): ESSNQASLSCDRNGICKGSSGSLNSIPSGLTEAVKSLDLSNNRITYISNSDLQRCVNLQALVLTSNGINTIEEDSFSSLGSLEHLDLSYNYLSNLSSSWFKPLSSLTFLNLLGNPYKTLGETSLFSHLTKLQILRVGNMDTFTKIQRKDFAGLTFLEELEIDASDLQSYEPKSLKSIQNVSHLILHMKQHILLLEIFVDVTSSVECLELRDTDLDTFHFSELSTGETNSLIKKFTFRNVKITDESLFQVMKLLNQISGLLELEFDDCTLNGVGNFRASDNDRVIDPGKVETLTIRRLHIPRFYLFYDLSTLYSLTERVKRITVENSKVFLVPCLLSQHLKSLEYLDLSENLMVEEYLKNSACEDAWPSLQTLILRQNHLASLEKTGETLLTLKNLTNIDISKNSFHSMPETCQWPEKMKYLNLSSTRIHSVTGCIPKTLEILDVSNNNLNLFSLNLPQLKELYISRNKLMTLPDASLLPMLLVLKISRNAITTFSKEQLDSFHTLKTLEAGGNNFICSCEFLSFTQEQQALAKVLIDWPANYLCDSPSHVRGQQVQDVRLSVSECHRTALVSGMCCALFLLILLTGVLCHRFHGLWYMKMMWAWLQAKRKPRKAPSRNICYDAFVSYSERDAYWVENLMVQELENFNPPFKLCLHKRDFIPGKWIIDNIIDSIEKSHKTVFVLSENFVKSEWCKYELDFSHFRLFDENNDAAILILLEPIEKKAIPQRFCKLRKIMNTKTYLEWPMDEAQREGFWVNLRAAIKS

Substance Der p 2.0110 S47W (natural protein) showed an IL-8 release from BEAS-2B cells, allergen at 25 µg/mL, 24 hours of 157 pg/mL.

Substance “recombinant Der p 2 variant 2.0110 (from UniProt P49278 18-146) (natural protein)” showed an IL-8 release from BEAS-2B cells, allergen at 25 µg/mL, 24 hours of 310 pg/mL.
